Values belong to the substance of their own block, whether it stands above or below them.
Target: T1, GluK5-WT (kainate receptor subunit GluK5) (UniProt Q16478)
T1 sequence: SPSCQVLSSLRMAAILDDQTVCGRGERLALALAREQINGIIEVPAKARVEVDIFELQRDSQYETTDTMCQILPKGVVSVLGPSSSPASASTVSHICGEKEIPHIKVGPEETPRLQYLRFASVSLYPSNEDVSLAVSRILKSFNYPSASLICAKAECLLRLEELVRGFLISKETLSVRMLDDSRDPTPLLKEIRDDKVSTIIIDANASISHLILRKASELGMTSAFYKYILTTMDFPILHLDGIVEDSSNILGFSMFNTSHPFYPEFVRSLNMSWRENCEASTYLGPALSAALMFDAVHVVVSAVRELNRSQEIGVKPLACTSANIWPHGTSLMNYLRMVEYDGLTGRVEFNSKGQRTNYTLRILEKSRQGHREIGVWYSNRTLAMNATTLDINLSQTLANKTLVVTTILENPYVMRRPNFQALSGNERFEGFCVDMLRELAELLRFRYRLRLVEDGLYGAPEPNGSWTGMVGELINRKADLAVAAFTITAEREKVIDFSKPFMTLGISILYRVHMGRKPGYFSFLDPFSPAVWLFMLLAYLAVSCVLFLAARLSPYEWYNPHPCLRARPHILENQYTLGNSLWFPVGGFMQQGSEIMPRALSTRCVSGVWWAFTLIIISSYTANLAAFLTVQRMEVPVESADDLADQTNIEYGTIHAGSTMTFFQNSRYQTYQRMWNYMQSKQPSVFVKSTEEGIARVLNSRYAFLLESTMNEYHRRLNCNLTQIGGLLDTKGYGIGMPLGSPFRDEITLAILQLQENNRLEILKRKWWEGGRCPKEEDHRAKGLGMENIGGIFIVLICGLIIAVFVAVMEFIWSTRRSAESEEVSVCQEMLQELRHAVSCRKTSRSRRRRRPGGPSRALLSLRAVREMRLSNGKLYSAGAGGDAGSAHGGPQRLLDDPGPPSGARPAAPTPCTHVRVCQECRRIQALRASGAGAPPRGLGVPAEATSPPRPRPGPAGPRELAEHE

- cell surface (biotinylated) GluK2-A487L, % of total, on co-expression with GluK5-WT in HEK293 cells: 14%
- cell surface (biotinylated) GluK5, % of total, on co-expression with GluK2-A487L in HEK293 cells (GluK5 alone not detectable on the surface): 14%
- increase in cell surface GluK2-A487L on co-expression with GluK5-WT against the homomeric subunit: 5 fold
Substance: GluK2-A487L (from UniProt Q13002 32-908) (receptor)

- cell surface (biotinylated) GluK2-A487T, % of total, on co-expression with GluK5-WT in HEK293 cells: 18%
- cell surface (biotinylated) GluK5, % of total, on co-expression with GluK2-A487T in HEK293 cells (GluK5 alone not detectable on the surface): 20%
Substance: GluK2-A487T (from UniProt Q13002 32-908) (receptor)

- cell surface (biotinylated) GluK2-S689N/N690S, % of total, on co-expression with GluK5-WT in HEK293 cells: 12%
- cell surface (biotinylated) GluK5, % of total, on co-expression with GluK2-S689N/N690S in HEK293 cells (GluK5 alone not detectable on the surface): 10%
Substance: GluK2-S689N/N690S (from UniProt Q13002 32-908) (receptor)

- cell surface (biotinylated) GluK2-T659V, % of total, on co-expression with GluK5-WT in HEK293 cells: 28%
- cell surface (biotinylated) GluK5, % of total, on co-expression with GluK2-T659V in HEK293 cells (GluK5 alone not detectable on the surface): 26%
- increase in cell surface GluK2-T659V on co-expression with GluK5-WT against the homomeric subunit: 7 fold
Substance: GluK2-T659V (from UniProt Q13002 32-908) (receptor)

- cell surface (biotinylated) GluK2, % of total, on co-expression with GluK5-WT in HEK293 cells: 28%
- cell surface (biotinylated) GluK5, % of total, on co-expression with GluK2-WT in HEK293 cells (GluK5 alone not detectable on the surface): 27%
Substance: GluK2-WT (human GluK2a(Q) kainate receptor subunit) (from UniProt Q13002 32-908)
